This note sets out measurements from patent US20220040297A1.

Assay [1] addresses CD3ε homodimer protein (human) (UniProt P07766). The experiment in a line: SPR, immobilized CD3ε homodimer.
The target is the same in assay [2]. Put plainly: SPR, CD3e immobilized. For orientation: In SPR one partner is held on a chip, and binding of the other changes the refractive index at the surface.
The target is the same in assay [3]. The experiment in a line: SPR, CD3ε homodimer on chip.

Chain of CD3ε homodimer protein (human) (P07766 23-126 limits assumed): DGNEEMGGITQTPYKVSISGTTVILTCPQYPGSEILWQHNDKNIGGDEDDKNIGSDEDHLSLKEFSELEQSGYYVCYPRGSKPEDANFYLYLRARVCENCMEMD

B1: GLS3000 H27dM (antibody, IgG1, name in Kabat numbering, V domains shown)
VH: QVQLVESGGGVVQPGRSLRLSCAASGFTFSNAWMHWVRQAPGKGLEWVAQIKAKSNNYATYYAESVKGRFTISRDDSKNSLYLQMNSLKTEDTAVYYCRYVHYGAYYGVDAWGQGTTVTVSS
VL: DIVMTQSPLSLPVTPGEPASISCRSSQSLVMSNRNTYLHWYQQKPGQAPRLLIYKVSNRFSGVPDRFSGSGSGTDFTLKISRVEAEDVGVYYCGQGTQVPYTFGQGTKLEIK
Regarding B1, in assay [1], the ratio of amounts bound (vs GLS3000) turned out to be 0.03. Moreover, the KD ratio to GLS3000 in assay [2] was determined as 3.43.

B2: CE115HA000 Y97S (antibody, name in Kabat numbering, V domains shown)
VH: QVQLVESGGGVVQPGRSLRLSCAASGFTFSNAWMHWVRQAPGKGLEWVAQIKAKSNNYATYYAESVKGRFTISRDDSKNSLYLQMNSLKTEDTAVYYCRYVHSGAYYGVDAWGQGTTVTVSS
VL: DIVMTQSPLSLPVTPGEPASISCRSSQSLVHSNRNTYLHWYQQKPGQAPRLLIYKVSNRFSGVPDRFSGSGSGTDFTLKISRVEAEDVGVYYCGQGTQVPYTFGQGTKLEIK
B2: the ratio of amounts bound vs CE115HA000 in assay [3] was 9.28.

B3: CE115HA000 V95E (antibody, name in Kabat numbering, V domains shown)
VH: QVQLVESGGGVVQPGRSLRLSCAASGFTFSNAWMHWVRQAPGKGLEWVAQIKAKSNNYATYYAESVKGRFTISRDDSKNSLYLQMNSLKTEDTAVYYCRYEHYGAYYGVDAWGQGTTVTVSS
VL: DIVMTQSPLSLPVTPGEPASISCRSSQSLVHSNRNTYLHWYQQKPGQAPRLLIYKVSNRFSGVPDRFSGSGSGTDFTLKISRVEAEDVGVYYCGQGTQVPYTFGQGTKLEIK
On to B3, for which the ratio of amounts bound vs CE115HA000 in assay [3] is 9.24.

B4: CE115HA000 Y97R (antibody, name in Kabat numbering, V domains shown)
VH: QVQLVESGGGVVQPGRSLRLSCAASGFTFSNAWMHWVRQAPGKGLEWVAQIKAKSNNYATYYAESVKGRFTISRDDSKNSLYLQMNSLKTEDTAVYYCRYVHRGAYYGVDAWGQGTTVTVSS
VL: DIVMTQSPLSLPVTPGEPASISCRSSQSLVHSNRNTYLHWYQQKPGQAPRLLIYKVSNRFSGVPDRFSGSGSGTDFTLKISRVEAEDVGVYYCGQGTQVPYTFGQGTKLEIK
In the case of B4, the ratio of amounts bound vs CE115HA000 in assay [3] stood at 9.27.

B5: CE115HA000 D101R (antibody, name in Kabat numbering, V domains shown)
VH: QVQLVESGGGVVQPGRSLRLSCAASGFTFSNAWMHWVRQAPGKGLEWVAQIKAKSNNYATYYAESVKGRFTISRDDSKNSLYLQMNSLKTEDTAVYYCRYVHYGAYYGVRAWGQGTTVTVSS
VL: DIVMTQSPLSLPVTPGEPASISCRSSQSLVHSNRNTYLHWYQQKPGQAPRLLIYKVSNRFSGVPDRFSGSGSGTDFTLKISRVEAEDVGVYYCGQGTQVPYTFGQGTKLEIK
Consider B5, for which the ratio of amounts bound vs CE115HA000 in assay [3] turned out to be 9.24.

B6: GLS3000 H27dD (antibody, IgG1, name in Kabat numbering, V domains shown)
VH: QVQLVESGGGVVQPGRSLRLSCAASGFTFSNAWMHWVRQAPGKGLEWVAQIKAKSNNYATYYAESVKGRFTISRDDSKNSLYLQMNSLKTEDTAVYYCRYVHYGAYYGVDAWGQGTTVTVSS
VL: DIVMTQSPLSLPVTPGEPASISCRSSQSLVDSNRNTYLHWYQQKPGQAPRLLIYKVSNRFSGVPDRFSGSGSGTDFTLKISRVEAEDVGVYYCGQGTQVPYTFGQGTKLEIK
On to B6, for which, in assay [2], the KD ratio to GLS3000 was found to be 13600.
